Assay [1] deals with Exiguobacterium undea (DSM14481). Kind of assay: Lysozyme activity turbidity assay (optical density drop at 540 nm). Type of assay: biochemical, Exiguobacterium undae. The following applies: for Lysozyme activity against Exiguobacterium undea (in words): OD drop assay.
For assay [2], the system named is Micrococcus lysodeikticus ATTC No. 4698. The assay is described as above. The following applies: for Lysozyme activity against Micrococcus lysodeikticus (in words): OD drop assay.
For assay [3], the system named is Clostridium perfringens DSM756. Type of assay: cell-based. The following applies: for Diameter of clearing zone (mm): lysozymes 100 μg/ml, Bacitracin zinc salt 50 μg/ml; for Antimicrobial activity against Clostridium perfringens (in words): RDA.
Assay [4] is described as follows: Binding of LED to Avicel suspension (SDS gel of supernatant). The following applies: for Binding of LED protein to crystalline cellulose (in words): 25 mM Na-Acetate, pH 4.5, 25 mM NaCl.
The subject of assay [5] is Micrococcus lysodeiktikus ATCC No. 4698 cells. Kind of assay: Binding of LED to M. lysodeiktikus suspension (SDS gel of supernatant). Conditions: for Binding of LED protein to M. lysodiektikus cells (in words): 25 mM Na-Acetate, pH 4.5, 25 mM NaCl.
Where [6] appears, read: tested conditions (1/10 MHB pH 7 and 1/2 MHB pH 6).

“Also recorded” adds a separate entry of the source. Where two headings read alike, the source gives them in different places.

B1: SEQ ID NO: 297: mature GH24 lysozyme from Mortierella sp. ZY002 (protein, listed as Mortierella sp.)
chain: YPITGADALHCRSGPGTSYPIQKTLRPPQDIKIQCQEPGTVVNGVSLWDKTQFGCYVSDYYVKTGTGNYVAPRCNSGGSSSACTGLNDAGINLIKEFEGFVPRPAPDPIGLPTVGYGHLCQTKGCGEVKYSFPLTTATATALLKDDLPKYTSCLAKALNGKPKLNKNQWAALASWTFNVGCGNMKSSSLITRLNAGQNPNTVATEELPKWKLAGGKVLPGLVRRRAAEVKLFKTANSSQGYPKCA
modifications: mat_peptide (1)..(245)
notes: mature GH24 lysozyme from Mortierella sp; ZY002
On to B1, for which the “Lysozyme activity against Exiguobacterium undea (in words)” value in assay [1] is recorded as “good activity”. Also, in assay [1] (assay pH 6 (Table 14)), the “Lysozyme Activity against Exiguobacterium undae as measured by Optical Density Drop” value was “+++”. For the same molecule, the “Lysozyme activity against Micrococcus lysodeikticus (in words)” value in assay [2] is listed as “good activity”. Further, the “Lysozyme Activity against Micrococcus lysodeikticus as measured by Optical Density Drop” value in assay [2] (assay pH 6 (Table 14)) is reported as “++++”.

B2: SEQ ID NO: 306: mature GH24 lysozyme from Ilyonectria rufa (protein, listed as Ilyonectria rufa)
chain: YKITGDNVNCRSGPGTSYSVKRSFKKGTDVTLSCQTTGENVLGTSIWDKTSYGCYVSDYYVKTGSSGFVVKKCGTCGAPKSNAATVNLISDFEGFRANIYKDAAGYPTVGYGHLCSNSRCTDVPYSIPLSKANGKNLLATDMTKFEKCITAMVSSSVTLNKNQYGALVSWAFNMGCGATKTSTLIKRLNQGQNVNTVLSTELPKWVYAGGKKLNGLVRRRNAEIALAKKKTTEKALPNKC
modifications: mat_peptide (1)..(240)
notes: mature GH24 lysozyme from Ilyonectria rufa
In the case of B2, the “Lysozyme activity against Exiguobacterium undea (in words)” value in assay [1] is “good activity”. Further, the “Lysozyme Activity against Exiguobacterium undae as measured by Optical Density Drop” value in assay [1] (assay pH 6 (Table 14)) is recorded as “++++”. For the same molecule, the “Lysozyme activity against Micrococcus lysodeikticus (in words)” value in assay [2] is given as “good activity”. Besides, in assay [2] (assay pH 6 (Table 14)), the “Lysozyme Activity against Micrococcus lysodeikticus as measured by Optical Density Drop” value is reported as “++”.

B3: SEQ ID NO: 300: mature GH24 lysozyme from Metarhizium sp. XZ2431 (protein, listed as Metarhizium sp.)
chain: YPVSADSLNCRAEPNTSSAIKTTYKKGEDVKISCQTEGPSINGNTIWDKTQDGCYVADYYVKTGSSGYVTGKCGGSSPPSGSGFCKTVNKAGLDLITKWEGFVSSPRGDPIGLPTVGYGHLCQKKGCAEVKYKFPLTKATALQLLNDDLPKYTGCLGKLLNSKVKLNDNQWAALTSWVFNVGCGNAQSSSLVRRLNNGENPNTVAPSELPKWKMAGGKVLEGLVKRRADEVRLFKVSSSKGAFPKCQ
modifications: mat_peptide (1)..(247)
notes: mature GH24 lysozyme from Metarhizium sp; XZ2431
For B3, in assay [1], the “Lysozyme activity against Exiguobacterium undea (in words)” value was “good activity”. Further, the “Lysozyme Activity against Exiguobacterium undae as measured by Optical Density Drop” value in assay [1] (assay pH 6 (Table 14)) is recorded as “+++”. The “Lysozyme activity against Micrococcus lysodeikticus (in words)” value in assay [2] is given as “good activity”. For the same molecule, the “Lysozyme Activity against Micrococcus lysodeikticus as measured by Optical Density Drop” value in assay [2] (assay pH 6 (Table 14)) is recorded as “+++”.

B4: SEQ ID NO: 303: mature GH24 lysozyme from Geomyces auratus (protein, listed as Geomyces auratus)
chain: AFPITGSTVNCRTGPGTSHGVKTSYKKGHEVTVSCQTGGTSVNGNSIWDKTSDGCYVADYYVKTGSSGYVKPKCGSSSGGGGGSSCGAPKSNAATVNLIAEFEGFVSHVYTDATGHPTVGYGHLCSNSKCSGIGYSIPISKANAKKLLAKDMAIAEKCITAMINKSRTLNLNQYGALVSWAFNEGCGAAKSSTLIKRINNGEKPSTVIPQELPKWVYGGSSVLPGLVRRRNAEIALAKKATSSKALPAHC
modifications: mat_peptide (1)..(250)
notes: mature GH24 lysozyme from Geomyces auratus
As to B4, the “Lysozyme activity against Exiguobacterium undea (in words)” value in assay [1] is “good activity”. Besides, the “Lysozyme Activity against Exiguobacterium undae as measured by Optical Density Drop” value in assay [1] (assay pH 6 (Table 14)) is on record as “++++”. For the same molecule, in assay [2], the “Lysozyme activity against Micrococcus lysodeikticus (in words)” value was “good activity”. In assay [2] (assay pH 6 (Table 14)), the “Lysozyme Activity against Micrococcus lysodeikticus as measured by Optical Density Drop” value is on record as “+++”.

B5: SEQ ID NO: 267: mature GH24 lysozyme from Trichoderma harzianum, comprising LED (protein, listed as Trichoderma harzianum)
chain: YPITGDVVNCRTGPGTSYAIKKSYKKNQDISISCQTAGTSVNGNSIWDKTADGCYVADYYVKTGSSGYVTKKCTASSGGGSSSSYCKTINSAGVDLIAKWEGFVASPKPDPIGLPTVGYGHLCQQKNCREVKYKFPLTKTTAKELLLDDLPKYTKCLADYLNDKPKLNANQWAALTSWVFNVGCGNAKTSTLVKRLNNGEAANTVAAEELPKWRMAGGKVLPGLEARRKDEVKLFKTASSKQAYPKCQ
modifications: mat_peptide (1)..(248)
notes: mature GH24 lysozyme from Trichoderma harzianum, comprising LED
As for B5, the “Lysozyme activity against Exiguobacterium undea (in words)” value in assay [1] is “good activity”. The “Lysozyme Activity against Exiguobacterium undae as measured by Optical Density Drop” value in assay [1] (assay pH 6 (Table 14)) is “++++”. Also, the “Diameter of clearing zone (mm)” value in assay [3] (Experiment 1, 1/2 MHB pH 6) was found to be 12 mm; in assay [3] (Experiment 1, 1/10 MHB pH 7), 10 mm; in assay [3] (Experiment 2, 1/10 MHB pH 7), 8 mm. The “Antimicrobial activity against Clostridium perfringens (in words)” value (“Antimicrobial activity” for short) is “significant activity” in assay [3] (50% MHB, pH 6) and “showed antimicrobial activity” in assay [3] (setting [6]). The “Lysozyme activity against Micrococcus lysodeikticus (in words)” value in assay [2] is “good activity”. Further, the “Lysozyme Activity against Micrococcus lysodeikticus as measured by Optical Density Drop” value in assay [2] (assay pH 6 (Table 14)) is on record as “+++”.

B6: SEQ ID NO: 273: mature LED (lysozyme enhancing domain) from Trichophaea saccata (protein)
chain: YPVKTDLHCRSSPSTSASIVRTYSSGTEVQIQCQTTGTSVQGSNVWDKTQHGCYVADYYVKTGHSGIFTTKCG
modifications: mat_peptide (1)..(73)
notes: mature LED (lysozyme enhancing domain) from Trichophaea saccata
For the molecule B6, the “Binding of LED protein to crystalline cellulose (in words)” value is “did not bind” in assay [4] and “could not bind” in assay [4] (listed as LED protein). Moreover, the “Result: LED band intensity on an SDS gel (supernatant after incubation)” value in assay [4] (Suspension: Avicel, 30 minutes room temperature) is on record as “+++”; in assay [5] (Suspension: M. lysodeiktikus, 30 minutes room temperature) it was “+”. Moreover, the “Binding of LED protein to M. lysodiektikus cells (in words)” value is “binds” in assay [5] and “able to bind” in assay [5] (listed as LED protein). In assay [5] (Suspension: None (untreated LED sample, reference for both suspensions)), the “Result: LED band intensity on an SDS gel” value is “+++”.

B7: SEQ ID NO: 280: mature GH24 lysozyme from Acremonium alcalophilum, mature sequence of SEQ ID NO: 6 of WO 2013/076259; no LED (protein, listed as Acremonium alcalophilum)
chain: QCVGPAINSAALNLIKEFEGWRPNIYRDPVGLPTVGYGHLCRDSSCSDVPYPIPLSVANGERLLRSDLATASSVVLNANQYGALVSWAFNVGCGATSTSTLIRRLNAGESPNTVAAQELPRWNKAGGQVLPGLVRRRAAEVELHRTSTSVRALPACS
modifications: mat_peptide (1)..(157)
notes: no LED
As to B7, the “Lysozyme Activity against Exiguobacterium undae as measured by Optical Density Drop” value in assay [1] (assay pH 3-7) is reported as “−”. The “Diameter of clearing zone (mm)” value in assay [3] (Experiment 1, 1/2 MHB pH 6) is 0 mm; in assay [3] (Experiment 1, 1/10 MHB pH 7), 0 mm; in assay [3] (Experiment 2, 1/10 MHB pH 7) it was 0 mm. Moreover, in assay [3] (setting [6]), the “Antimicrobial activity” value is reported as “do not have any activity; also recorded: did not inhibit growth”. For the same molecule, in assay [2], the “Lysozyme activity against Micrococcus lysodeikticus (in words)” value is “small amount of activity”. Further, in assay [2] (assay pH 4.5), the “Lysozyme Activity against Micrococcus lysodeikticus as measured by Optical Density Drop” value is on record as “+”.

B8: SEQ ID NO: 264: mature GH24 lysozyme from Chaetomium thermophilum, comprising LED (protein, listed as Chaetomium thermophilum)
chain: PASAYAITGDNVNCRSGPGTSYAVKKVYKKGTDVKISCQTTGTNINGNNLWDKTSDGCYVSDYYVKTGSNGYVTSKCSSSGGSTCAAPKSNQATVDLIAEFEGFRANIYTDAAGYATVGYGHKCQKAKCAEVKYKIPLSKADGKKLLADDMRSFEVCITNMLNSKAKLNYNQFGALVSWSFNVGCGAAKSSTLIKRLNNGENVNKVLSEELPKWNKAGGKVLQGLVRRRAAEVALAKKSGSSQALPVKC
modifications: mat_peptide (1)..(249)
notes: mature GH24 lysozyme from Chaetomium thermophilum, comprising LED
With B8, the “Lysozyme activity against Exiguobacterium undea (in words)” value in assay [1] was “good activity”. Further, the “Lysozyme Activity against Exiguobacterium undae as measured by Optical Density Drop” value in assay [1] (assay pH 6) is reported as “++++”. Also, the “Diameter of clearing zone (mm)” value in assay [3] (Experiment 1, 1/2 MHB pH 6) is given as 10 mm; in assay [3] (Experiment 1, 1/10 MHB pH 7) it was 9 mm; in assay [3] (Experiment 2, 1/10 MHB pH 7) it was 7 mm. Further, the “Antimicrobial activity” value in assay [3] (50% MHB, pH 6) is listed as “significant activity”; in assay [3] (setting [6]) it was “showed antimicrobial activity”. Also, the “Lysozyme activity against Micrococcus lysodeikticus (in words)” value in assay [2] was “good activity”. The “Lysozyme Activity against Micrococcus lysodeikticus as measured by Optical Density Drop” value in assay [2] (assay pH 5) is “++++”.

Source of the values: patent US12324447B2, “Animal feed compositions and uses thereof” (priority 2015, dated 2025).
